As usually defined, the stoichiometry N is a count of units in the complex or per binding partner.

The target in test [1] is PhaF phasin from Pseudomonas putida KT2440 (Pseudomonas putida KT2440). The test can be described thus: AUC; sedimentation equilibrium, short columns, 10000 and 16000 rpm, 20 mM sodium phosphate pH 7.0, 150 mM NaCl, 20 °C; single-species fit.
Test [2] shares this target. The test can be described thus: AUC; sedimentation velocity; 38 µM PhaF (3.8 to 38 µM, data not shown) in 20 mM sodium phosphate pH 7.0, 150 mM NaCl, 48000 rpm, 20 °C; c(s) analysis.

In the case of “PhaF phasin from Pseudomonas putida KT2440 (natural protein)”, the stoichiometry N in test [1] and in test [2] was 4 throughout.
